From PMC2110890, “Glutathione mediated regulation of oligomeric structure and functional activity of Plasmodium falciparum glutathione S-transferase” (BMC Structural Biology, 2007)

Tests used:
human GST (human) [1] = target: human GST (human) (UniProt P09211); assay: SEC; Superdex 200 10/300 GL, 100 mM potassium phosphate pH 8.0, 1 mM EDTA, 0.3 mL/min, 25°C; incubated and run without GSH
human GST (human) [2] = target: human GST (human) (UniProt P09211); assay: cross-linking; 1% glutaraldehyde, 30 min, room temperature, protein 50 μg/mL, 10% SDS-PAGE; sample without GSH
human GST (human) [3] = target: human GST (human) (UniProt P09211); assay: SEC; Superdex 200 10/300 GL, 100 mM potassium phosphate pH 8.0, 1 mM EDTA, 25°C; incubated and run with GSH at 0.7 mM or more (2 mM GSH in Figures 1B and 3)
human GST (human) [4] = target: human GST (human) (UniProt P09211); assay: cross-linking; 1% glutaraldehyde, 30 min, room temperature, protein 50 μg/mL, 10% SDS-PAGE; sample incubated with GSH
[5] = target: the molecule itself; assay: SEC; Superdex 200 10/300 GL, 100 mM potassium phosphate pH 8.0, 1 mM EDTA, 25°C; incubated and run with GSH at 0.7 mM or more (2 mM GSH in Figures 1B and 3)
[6] = target: the molecule itself; assay: SEC; GSH-stabilized dimer dialysed for 4 h against buffer without GSH, then loaded on the column
[7] = target: the molecule itself; assay: SEC; Superdex 200 10/300 GL, 100 mM potassium phosphate pH 8.0, 1 mM EDTA, 0.3 mL/min, 25°C; incubated and run without GSH

Molecule: human GST (from UniProt P09211 1-210) (enzyme)
- stoichiometry N (human GST (human) [1]): 2
- stoichiometry N (human GST (human) [2]): 2
- stoichiometry N (human GST (human) [3]): 2
- stoichiometry N (human GST (human) [4]): 2

B1: Plasmodium falciparum glutathione S-transferase (enzyme, UniProt Q8ILQ7 1-211, looked up)
chain: MGDNIVLYYFDARGKAELIRLIFAYLGIEYTDKRFGVNGDAFVEFKNFKKEKDTPFEQVPILQIGDLILAQSQAIVRYLSKKYNICGESELNEFYADMIFCGVQDIHYKFNNTNLFKQNETTFLNEDLPKWSGYFEKLLKKNHTNNNNDKYYFVGNNLTYADLAVFNLYDDIETKYPSSLKNFPLLKAHNEFISNLPNIKNYITNRKESVY
notes: Glutathione S-transferase of Plasmodium falciparum (PfGST), recombinant, about 26 kDa on SDS-PAGE; The chain is a homotetramer without GSH and a homodimer at GSH of 0.7 mM or more, so copies is left empty; also called PfGST; recombinant PfGST; source: E. coli M15, purified (Ni-NTA agarose)
- stoichiometry N [5]: 2
- ratio of dimer to tetramer [6]: ~0.33 dimer:tetramer
- stoichiometry N [7]: 4
